First the molecules themselves.
B1: DNA mismatch repair protein MLH1 (Saccharomyces cerevisiae), P38920 (parent)
chain: MSLRIKALDASVVNKIAAGEIIISPVNALKEMMENSIDANATMIDILVKEGGIKVLQITDNGSGINKADLPILCERFTTSKLQKFEDLSQIQTYGFRGEALASISHVARVTVTTKVKEDRCAWRVSYAEGKMLESPKPVAGKDGTTILVEDLFFNIPSRLRALRSHNDEYSKILDVVGRYAIHSKDIGFSCKKFGDSNYSLSVKPSYTVQDRIRTVFNKSVASNLITFHISKVEDLNLESVDGKVCNLNFISKKSISPIFFINNRLVTCDLLRRALNSVYSNYLPKGNRPFIYLGIVIDPAAVDVNVHPTKREVRFLSQDEIIEKIANQLHAELSAIDTSRTFKASSISTNKPESLIPFNDTIESDRNRKSLRQAQVVENSYTTANSQLRKAKRQENKLVRIDASQAKITSFLSSSQQFNFEGSSTKRQLSEPKVTNVSHSQEAEKLTLNESEQPRDANTINDNDLKDQPKKKQKLGDYKVPSIADDEKNALPISKDGYIRVPKERVNVNLTSIKKLREKVDDSIHRELTDIFANLNYVGVVDEERRLAAIQHDLKLFLIDYGSVCYELFYQIGLTDFANFGKINLQSTNVSDDIVLYNLLSEFDELNDDASKEKIISKIWDMSSMLNEYYSIELVNDGLDNDLKSVKLKSLPLLLKGYIPSLVKLPFFIYRLGKEVDWEDEQECLDGILREIALLYIPDMVPKVDTSDASLSEDEKAQFINRKEHISSLLEHVLFPCIKRRFLAPRHILKDVVEIANLPDLYKVFERC
partner: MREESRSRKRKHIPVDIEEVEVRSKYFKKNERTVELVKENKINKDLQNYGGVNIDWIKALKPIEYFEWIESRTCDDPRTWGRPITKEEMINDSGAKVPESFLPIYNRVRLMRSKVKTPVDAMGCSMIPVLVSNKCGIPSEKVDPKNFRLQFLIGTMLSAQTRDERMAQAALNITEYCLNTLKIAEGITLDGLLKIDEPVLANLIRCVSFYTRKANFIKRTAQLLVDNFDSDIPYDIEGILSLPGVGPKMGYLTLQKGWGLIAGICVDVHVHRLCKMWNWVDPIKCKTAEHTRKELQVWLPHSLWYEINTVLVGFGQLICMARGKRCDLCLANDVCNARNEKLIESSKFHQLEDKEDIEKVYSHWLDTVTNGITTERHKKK
B2: Endonuclease III homolog 2 (Saccharomyces cerevisiae), Q08214 (parent)
chain: B1 partner
partner: B1 chain
B3: DNA mismatch repair protein MLH1 (Saccharomyces cerevisiae), P38920 (parent)
chain: B1 chain
partner: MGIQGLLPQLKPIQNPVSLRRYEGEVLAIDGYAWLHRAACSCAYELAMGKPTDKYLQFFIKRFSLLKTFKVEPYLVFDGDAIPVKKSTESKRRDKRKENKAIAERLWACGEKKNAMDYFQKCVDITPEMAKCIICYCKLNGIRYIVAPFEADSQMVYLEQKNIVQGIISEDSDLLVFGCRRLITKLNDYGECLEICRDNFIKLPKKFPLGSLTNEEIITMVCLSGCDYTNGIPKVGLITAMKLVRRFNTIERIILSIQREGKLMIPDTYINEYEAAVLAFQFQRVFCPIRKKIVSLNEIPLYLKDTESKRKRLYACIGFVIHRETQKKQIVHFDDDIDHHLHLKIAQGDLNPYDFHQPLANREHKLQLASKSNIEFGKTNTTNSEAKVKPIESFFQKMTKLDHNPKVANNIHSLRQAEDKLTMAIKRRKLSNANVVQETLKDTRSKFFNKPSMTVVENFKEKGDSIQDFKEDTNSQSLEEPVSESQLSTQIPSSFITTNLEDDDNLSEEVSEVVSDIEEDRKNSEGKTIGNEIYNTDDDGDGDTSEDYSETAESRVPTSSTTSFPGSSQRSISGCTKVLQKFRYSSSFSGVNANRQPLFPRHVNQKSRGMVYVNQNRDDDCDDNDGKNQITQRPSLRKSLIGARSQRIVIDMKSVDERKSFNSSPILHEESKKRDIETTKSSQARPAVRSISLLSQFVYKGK

Data on 5 variants can be found in IntAct's records for PubMed 23435383.

The variants in the first assay derive from B1. Conditions: with nth2_yeast NTG2, Q08214.
With L511A, the “effect of a mutation on the interaction” value is “disrupting interaction strength”.

Variants of B2 are the subject of the next assay. Particulars: with mlh1_yeast MLH1, P38920.
Take MREESRSRKRKHIPVDIEEVEVRSKYAKKNERTVELVKENKINKDLQNYGGVNIDWIKALKPIEYFEWIESRTCDDPRTWGRPITKEEMINDSGAKVPESFLPIYNRVRLMRSKVKTPVDAMGCSMIPVLVSNKCGIPSEKVDPKNFRLQFLIGTMLSAQTRDERMAQAALNITEYCLNTLKIAEGITLDGLLKIDEPVLANLIRCVSFYTRKANFIKRTAQLLVDNFDSDIPYDIEGILSLPGVGPKMGYLTLQKGWGLIAGICVDVHVHRLCKMWNWVDPIKCKTAEHTRKELQVWLPHSLWYEINTVLVGFGQLICMARGKRCDLCLANDVCNARNEKLIESSKFHQLEDKEDIEKVYSHWLDTVTNGITTERHKKK [F27A]: the “effect of a mutation on the interaction” value is on record as “disrupting interaction strength”.

Consider MREESRSRKRKHIPVDIEEVEVRSKYYKKNERTVELVKENKINKDLQNYGGVNIDWIKALKPIEYFEWIESRTCDDPRTWGRPITKEEMINDSGAKVPESFLPIYNRVRLMRSKVKTPVDAMGCSMIPVLVSNKCGIPSEKVDPKNFRLQFLIGTMLSAQTRDERMAQAALNITEYCLNTLKIAEGITLDGLLKIDEPVLANLIRCVSFYTRKANFIKRTAQLLVDNFDSDIPYDIEGILSLPGVGPKMGYLTLQKGWGLIAGICVDVHVHRLCKMWNWVDPIKCKTAEHTRKELQVWLPHSLWYEINTVLVGFGQLICMARGKRCDLCLANDVCNARNEKLIESSKFHQLEDKEDIEKVYSHWLDTVTNGITTERHKKK [F27Y], for which the “effect of a mutation on the interaction” value is given as “disrupting interaction strength”.

As to MREESRSRKRKHIPVDIEEVEVRSKFFKKNERTVELVKENKINKDLQNYGGVNIDWIKALKPIEYFEWIESRTCDDPRTWGRPITKEEMINDSGAKVPESFLPIYNRVRLMRSKVKTPVDAMGCSMIPVLVSNKCGIPSEKVDPKNFRLQFLIGTMLSAQTRDERMAQAALNITEYCLNTLKIAEGITLDGLLKIDEPVLANLIRCVSFYTRKANFIKRTAQLLVDNFDSDIPYDIEGILSLPGVGPKMGYLTLQKGWGLIAGICVDVHVHRLCKMWNWVDPIKCKTAEHTRKELQVWLPHSLWYEINTVLVGFGQLICMARGKRCDLCLANDVCNARNEKLIESSKFHQLEDKEDIEKVYSHWLDTVTNGITTERHKKK [Y26F], the “effect of a mutation on the interaction” value is listed as “decreasing interaction strength”.

Another assay covers variants of B3. Conditions: with exo1_yeast EXO1, P39875.
For the variant L511A, the “effect of a mutation on the interaction” value was “disrupting interaction strength”.
